We go through one substance from US9023987B2, “Cell-permeable peptide” (Seoul National University R&DB Foundation, priority 2010, dated 2015).

Holding throughout (type): cell-based
In one data set the target is T1, Smurf1 (Homo sapiens, UniProt Q9HCE7).
T1 construct: endogenous in cells; host or cells: human mesenchymal stem cells (hMSC)
Kind of data set: Immuno-precipitation and western blot of Smad1/5/8 ubiquitination in hMSC. As to conditions: hMSC pre-treated with MG132, 10 mM peptide, 1 hour 30 minutes; compared with MG132 only; FIG. 2B. The source says:
In order to confirm presence or absence of the active site of the cell permeable peptide-bone differentiation inducing sequence conjugate synthesized by the method in Example 1 for binding to Smurf1, an immuno-precipitation method and a western blot assay method were used. The present experimental method is applied in order to confirm that the cell permeable peptide-bone differentiation inducing sequence conjugate synthesized by the method in Example 1 may suppress a bioactivity of Smurf1 decomposing Smd1/5/8 as one of the E3 ligases playing a role in ubiquitin ligation.
1×10^6 human mesenchymal stem cells (hMSC) used as a model cell in the present experiment were plated in each dish and then cultured in a general medium for 20 hours (overnight incubation). Then the cells was cultured in an hMSC basal medium (MSCBM™, LONZA, USA) containing 0.5% fetal bovine serum (FBS, GIBCO, USA) for 20 hours (overnight starvation). After overnight starvation in 0.5% MSCBM™, […] MG132 (MG132; proteasome inhibitor, Merck, USA) was added to the same medium to allow the cells to be pre-treated for 2 hours. Thereafter, the cell permeable peptide-bone differentiation inducing sequence conjugate synthesized by the method in Example 1 and peptides of Comparative Examples 1 and 2 were injected into each dish at a concentration of […], respectively, and cultured for 1 hour 30 minutes. […]
For orientation: A western blot detects proteins with antibodies after separation by electrophoresis.

The subject of data set [1] is human mesenchymal stem cells (hMSC). The data set can be described thus: Cell differentiation ability by alkaline phosphatase (ALP) staining. More on the design: dose or concentration left out as unconfirmed. The settings on record: hard tissue-forming medium, 14 days, compared with PBS; FIG. 4A d-f. The protocol: In order to detect alkaline phosphate (ALP), which is a label material shown at the initial stage of bone differentiation, for cell differentiation ability of the cell permeable peptide-bone differentiation inducing sequence conjugate, human mesenchymal stem cells (hMSC) were seeded in a 24-well plate at 1×10^3/well, and then treated with the cell permeable peptide-bone differentiation inducing sequence conjugate synthesized from Example 1 and the bone differentiation inducing sequence of Comparative Example 2 of […] for each, and then incubated in a hard tissue forming medium for 14 days. The hard tissue-forming medium contained an MSCBM medium containing 15% FBS (fetal bovine serum), […] of L-ascorbic acid, 10^−7 M dexamethasone, 1% antibiotic-antimycotic solution, and 10 mM beta-glycerol phosphate. After completion of the incubation, the medium was removed, and then the cells were washed with phosphate buffer solution (PBS) twice. The cells were fixed with 10% NBF at room temperature for 20 minutes, and then washed with a phosphate buffer solution (PBS) twice. Then, staining was conducted using the Alkaline phosphatase detection kit (Millipore, USA) by the experiment method recommended by the manufacture.

Data set [2] shares this test system. Kind of data set: Cytotoxicity / cell proliferation by quantitative BrdU assay. More on the design: dose or concentration left out as unconfirmed. The settings on record: 24, 48, and 72 hours, FIG. 6. How it is done:
In order to confirm whether or not cell proliferation is affected by potential toxicity when the cell permeable peptide-bone differentiation inducing sequence conjugate and control domains are cultured with hMSC, a degree of cell proliferation was analysis by ELISA using BrdU. Since BrdU was introduced in chromosome instead of deoxy thymidine triphosphate (dTTP) at the time of DNA replication during a proliferation process of hMSC, a degree of introduction of BrdU may reflect a degree of proliferation of hMSC.
First, After 1×10^3 human Mesenchymal Stem cells (hMSC) were plated into each well of 96-well plate, the degree of introduction of BrdU, that is, the degree of proliferation of hMSC was measured using a cell proliferation ELISA kit (BrdU (colorimetry); Boehringermanheim, Germany). Simply describing this method, the cells were treated with the cell permeable peptide-bone differentiation inducing sequence conjugate synthesized by the method in Example 1 and the domains of Example 2 at a concentration of […] and cultured in medium for forming hard tissue for 24, 48, and 72 hours. […] of BrdU (5-bromo-2′-deoxyuridine) was added to each of the groups before 24 hours of each culture time and further cultured for 24 hours. […] The reaction was terminated by 1N H2SO4, and then absorbance was measured using the ELISA reader (Bio-Tek, USA) at 450 nm.

T1 sequence (Q9HCE7 whole entry): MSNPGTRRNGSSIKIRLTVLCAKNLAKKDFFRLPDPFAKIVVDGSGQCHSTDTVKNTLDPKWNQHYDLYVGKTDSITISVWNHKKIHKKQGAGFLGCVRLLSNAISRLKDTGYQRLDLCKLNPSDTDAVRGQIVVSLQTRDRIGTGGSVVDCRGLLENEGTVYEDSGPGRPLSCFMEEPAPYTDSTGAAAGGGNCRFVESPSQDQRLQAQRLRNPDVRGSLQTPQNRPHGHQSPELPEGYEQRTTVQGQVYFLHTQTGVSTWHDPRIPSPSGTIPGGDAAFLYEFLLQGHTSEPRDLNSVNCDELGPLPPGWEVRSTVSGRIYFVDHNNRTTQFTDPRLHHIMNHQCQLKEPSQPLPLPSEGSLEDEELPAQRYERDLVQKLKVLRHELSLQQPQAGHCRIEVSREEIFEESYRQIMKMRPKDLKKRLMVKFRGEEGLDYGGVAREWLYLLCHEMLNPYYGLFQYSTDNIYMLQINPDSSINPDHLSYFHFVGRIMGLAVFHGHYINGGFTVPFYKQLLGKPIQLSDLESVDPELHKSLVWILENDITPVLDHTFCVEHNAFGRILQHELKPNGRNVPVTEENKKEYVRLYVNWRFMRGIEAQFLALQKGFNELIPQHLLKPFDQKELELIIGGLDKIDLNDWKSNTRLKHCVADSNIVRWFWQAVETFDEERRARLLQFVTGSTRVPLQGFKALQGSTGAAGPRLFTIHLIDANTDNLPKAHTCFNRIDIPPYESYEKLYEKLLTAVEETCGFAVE

In the case of “NH2-GAPPPADSAP-SSRKKNPNCRRH-C-COONH2 (H-GAPPPADSAPSSRKKNPNCRRHC-NH2; cysteine pairing not given here) [Example 1]”, the “ubiquitination of Smad1/5/8 (ubiquitin antibody after Smad1/5/8 immuno-precipitation)” value with Smurf1 is reported as “ubiquitination of Smad1/5/8 was suppressed”. In addition, in data set [1], the “differentiation into osteoblast, alkaline phosphatase staining” value is on record as “relatively strong staining degree of alkaline phosphatase”. In addition, the “effect on cell proliferation (BrdU, DNA synthesis ability compared with PBS)” value in data set [2] is “did not affect the cell proliferation”.
